Substitutions are numbered along the chain they refer to. Names and notes keep the numbering of the source.
B1: human TRAF2 construct RZ1 (RING and first zinc finger domains, residues 1-133-His), wild type (domain or fragment, UniProt Q12933 1-133, looked up)
chain: MAAASVTPPGSLELLQPGFSKTLLGTKLEAKYLCSACRNVLRRPFQAQCGHRYCSFCLASILSSGPQNCAACVHEGIYEEGISILESSSAFPDNAARREVESLPAVCPSDGCTWKGTLKEYESCHEGRCPLML
B2: TRAF2 RZ1 Q46A mutant (domain or fragment, human, UniProt Q12933 1-133, looked up)
chain: B1 chain with Q46A
B3: TRAF2 RZ1 N94A mutant (domain or fragment, human, UniProt Q12933 1-133, looked up)
chain: B1 chain with N94A

Biological target: the molecule itself
Experiment: SEC

| Protein | stoichiometry N | binding result |
| --- | --- | --- |
| B1 | 2 |  |
| B2 |  | binds |
| B3 |  | binds |

From paper PMC2830148 (Biochemistry, 2009)
